B1: Mothers against decapentaplegic homolog 4 (Homo sapiens), Q13485 (parent)
chain: MDNMSITNTPTSNDACLSIVHSLMCHRQGGESETFAKRAIESLVKKLKEKKDELDSLITAITTNGAHPSKCVTIQRTLDGRLQVAGRKGFPHVIYARLWRWPDLHKNELKHVKYCQYAFDLKCDSVCVNPYHYERVVSPGIDLSGLTLQSNAPSSMMVKDEYVHDFEGQPSLSTEGHSIQTIQHPPSNRASTETYSTPALLAPSESNATSTANFPNIPVASTSQPASILGGSHSEGLLQIASGPQPGQQQNGFTGQPATYHHNSTTTWTGSRTAPYTPNLPHHQNGHLQHHPPMPPHPGHYWPVHNELAFQPPISNHPAPEYWCSIAYFEMDVQVGETFKVPSSCPIVTVDGYVDPSGGDRFCLGQLSNVHRTEAIERARLHIGKGVQLECKGEGDVWVRCLSDHAVFVQSYYLDREAGRAPGDAVHKIYPSAYIKVFDLRQCHRQMQQQAATAQAAAAAQAAAVAGNIPGPGSVGGIAPAISLSAAAGIGVDDLRRLCILRMSFVKGWGPDYPRQSIKETPCWIEIHLHRALQLLDEVLHTMPIADPQPLD
partner: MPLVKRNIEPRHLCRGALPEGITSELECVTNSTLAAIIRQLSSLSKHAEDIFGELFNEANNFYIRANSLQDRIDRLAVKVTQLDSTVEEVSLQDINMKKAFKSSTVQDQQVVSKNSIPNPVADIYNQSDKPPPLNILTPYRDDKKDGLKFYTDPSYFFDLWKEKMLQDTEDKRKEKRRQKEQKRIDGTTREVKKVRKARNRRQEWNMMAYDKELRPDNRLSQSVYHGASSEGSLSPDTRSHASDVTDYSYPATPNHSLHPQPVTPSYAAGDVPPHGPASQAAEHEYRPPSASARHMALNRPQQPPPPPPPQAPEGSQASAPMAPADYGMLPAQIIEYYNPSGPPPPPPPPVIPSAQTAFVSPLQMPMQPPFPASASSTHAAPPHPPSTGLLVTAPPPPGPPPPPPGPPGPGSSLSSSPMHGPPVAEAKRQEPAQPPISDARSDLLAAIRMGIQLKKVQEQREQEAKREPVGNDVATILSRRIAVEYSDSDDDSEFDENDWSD
B2: Mothers against decapentaplegic homolog 4 (Homo sapiens), Q13485 (parent)
chain: B1 chain
partner: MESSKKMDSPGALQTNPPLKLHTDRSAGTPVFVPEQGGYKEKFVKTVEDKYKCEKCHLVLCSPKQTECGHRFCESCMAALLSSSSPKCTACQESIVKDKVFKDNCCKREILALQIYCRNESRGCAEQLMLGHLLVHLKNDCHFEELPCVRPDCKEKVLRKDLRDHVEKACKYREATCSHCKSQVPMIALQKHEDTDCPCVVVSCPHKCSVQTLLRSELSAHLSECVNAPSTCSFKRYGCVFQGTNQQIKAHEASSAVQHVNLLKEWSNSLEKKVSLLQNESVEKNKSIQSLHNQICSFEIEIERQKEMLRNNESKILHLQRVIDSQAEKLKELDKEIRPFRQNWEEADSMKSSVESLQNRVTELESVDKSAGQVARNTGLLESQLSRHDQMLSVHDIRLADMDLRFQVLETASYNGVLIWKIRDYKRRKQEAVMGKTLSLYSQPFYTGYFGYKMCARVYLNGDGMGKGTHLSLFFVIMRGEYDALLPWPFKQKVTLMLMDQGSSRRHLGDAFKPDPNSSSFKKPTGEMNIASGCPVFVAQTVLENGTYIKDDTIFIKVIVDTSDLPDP
B3: Mothers against decapentaplegic homolog 4 (Homo sapiens), Q13485 (parent)
chain: B1 chain
partner: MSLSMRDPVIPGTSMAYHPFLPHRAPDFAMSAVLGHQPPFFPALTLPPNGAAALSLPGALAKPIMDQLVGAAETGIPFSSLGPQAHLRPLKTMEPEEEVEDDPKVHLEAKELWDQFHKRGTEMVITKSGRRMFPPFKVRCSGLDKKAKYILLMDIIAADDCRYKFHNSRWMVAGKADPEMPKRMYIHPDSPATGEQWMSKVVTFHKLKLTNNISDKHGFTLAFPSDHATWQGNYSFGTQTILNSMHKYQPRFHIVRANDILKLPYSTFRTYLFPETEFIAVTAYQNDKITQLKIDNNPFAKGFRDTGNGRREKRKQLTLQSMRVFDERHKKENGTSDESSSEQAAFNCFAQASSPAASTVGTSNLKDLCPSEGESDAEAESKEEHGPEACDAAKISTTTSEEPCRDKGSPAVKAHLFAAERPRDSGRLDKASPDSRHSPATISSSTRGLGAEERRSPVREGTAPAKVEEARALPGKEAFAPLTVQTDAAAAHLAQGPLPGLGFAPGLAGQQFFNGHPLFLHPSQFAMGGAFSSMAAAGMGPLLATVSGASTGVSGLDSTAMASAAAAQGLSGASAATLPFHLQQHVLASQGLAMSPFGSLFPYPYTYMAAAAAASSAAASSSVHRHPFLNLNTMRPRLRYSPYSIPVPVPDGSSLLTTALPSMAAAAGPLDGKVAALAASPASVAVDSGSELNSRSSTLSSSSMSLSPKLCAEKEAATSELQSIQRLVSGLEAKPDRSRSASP
B4: Mothers against decapentaplegic homolog 4 (Homo sapiens), Q13485 (parent)
chain: B1 chain
partner: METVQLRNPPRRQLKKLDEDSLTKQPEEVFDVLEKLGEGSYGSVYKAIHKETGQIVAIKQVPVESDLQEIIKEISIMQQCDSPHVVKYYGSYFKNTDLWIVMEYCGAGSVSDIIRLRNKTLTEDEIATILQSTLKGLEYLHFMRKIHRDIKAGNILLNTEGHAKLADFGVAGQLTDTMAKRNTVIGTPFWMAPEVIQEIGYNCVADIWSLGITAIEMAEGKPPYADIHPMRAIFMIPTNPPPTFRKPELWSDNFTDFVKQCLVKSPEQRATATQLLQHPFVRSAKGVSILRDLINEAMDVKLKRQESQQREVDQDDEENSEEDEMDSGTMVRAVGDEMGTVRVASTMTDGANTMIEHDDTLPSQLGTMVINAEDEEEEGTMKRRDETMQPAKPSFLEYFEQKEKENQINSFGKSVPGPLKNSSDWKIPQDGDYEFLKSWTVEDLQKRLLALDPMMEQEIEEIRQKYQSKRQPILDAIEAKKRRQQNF
B5: Mothers against decapentaplegic homolog 4 (Homo sapiens), Q13485 (parent)
chain: B1 chain
partner: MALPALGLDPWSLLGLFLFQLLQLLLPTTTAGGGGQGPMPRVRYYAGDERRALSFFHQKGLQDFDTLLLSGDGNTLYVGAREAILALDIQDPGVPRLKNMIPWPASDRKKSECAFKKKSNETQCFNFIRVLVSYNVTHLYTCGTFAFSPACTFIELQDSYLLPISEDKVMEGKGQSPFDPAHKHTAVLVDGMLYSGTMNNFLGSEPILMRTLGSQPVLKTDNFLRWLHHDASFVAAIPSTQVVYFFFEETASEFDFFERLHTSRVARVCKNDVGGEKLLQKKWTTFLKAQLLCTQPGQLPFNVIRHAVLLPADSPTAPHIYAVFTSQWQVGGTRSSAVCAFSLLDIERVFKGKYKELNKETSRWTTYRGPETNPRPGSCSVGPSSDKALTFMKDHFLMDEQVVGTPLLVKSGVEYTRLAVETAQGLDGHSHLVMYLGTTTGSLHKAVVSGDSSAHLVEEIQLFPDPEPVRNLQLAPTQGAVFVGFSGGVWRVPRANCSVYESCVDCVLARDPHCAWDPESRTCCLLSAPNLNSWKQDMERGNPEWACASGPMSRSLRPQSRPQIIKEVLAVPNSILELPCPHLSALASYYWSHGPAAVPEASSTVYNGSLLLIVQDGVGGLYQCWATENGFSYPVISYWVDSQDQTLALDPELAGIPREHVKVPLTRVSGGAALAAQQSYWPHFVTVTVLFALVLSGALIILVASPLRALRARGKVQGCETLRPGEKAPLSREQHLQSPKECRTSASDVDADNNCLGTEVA
B6: Mothers against decapentaplegic homolog 4 (Homo sapiens), Q13485 (parent)
chain: B1 chain
partner: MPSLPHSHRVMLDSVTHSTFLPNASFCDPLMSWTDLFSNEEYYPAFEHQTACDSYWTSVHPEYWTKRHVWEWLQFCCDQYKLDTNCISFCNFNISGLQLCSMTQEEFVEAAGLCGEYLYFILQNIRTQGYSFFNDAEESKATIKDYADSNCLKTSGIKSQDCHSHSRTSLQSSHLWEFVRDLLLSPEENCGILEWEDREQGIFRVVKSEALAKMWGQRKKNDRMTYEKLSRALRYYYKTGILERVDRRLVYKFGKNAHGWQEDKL
B7: Mothers against decapentaplegic homolog 4 (Homo sapiens), Q13485 (parent)
chain: B1 chain
partner: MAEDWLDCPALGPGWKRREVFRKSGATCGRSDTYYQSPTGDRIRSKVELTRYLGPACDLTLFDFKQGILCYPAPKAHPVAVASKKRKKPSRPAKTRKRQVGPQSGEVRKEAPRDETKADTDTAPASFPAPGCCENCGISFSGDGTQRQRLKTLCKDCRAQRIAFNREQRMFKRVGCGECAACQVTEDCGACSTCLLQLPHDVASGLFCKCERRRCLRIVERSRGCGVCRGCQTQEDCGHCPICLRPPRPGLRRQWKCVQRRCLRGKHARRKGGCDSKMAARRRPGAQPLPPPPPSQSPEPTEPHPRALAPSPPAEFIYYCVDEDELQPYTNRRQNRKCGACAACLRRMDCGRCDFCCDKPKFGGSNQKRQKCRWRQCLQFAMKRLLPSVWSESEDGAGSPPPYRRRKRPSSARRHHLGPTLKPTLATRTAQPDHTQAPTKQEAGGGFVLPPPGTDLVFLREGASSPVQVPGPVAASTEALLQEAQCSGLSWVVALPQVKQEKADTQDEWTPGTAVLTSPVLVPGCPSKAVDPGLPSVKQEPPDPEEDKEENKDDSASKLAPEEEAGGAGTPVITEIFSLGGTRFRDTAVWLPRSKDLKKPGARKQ

Variants of: B1
Details: with wasf3_human WASF3, Q9UPY6
In the case of D351H, the “effect of a mutation on the interaction” value is reported as “with no effect”.

Variants of: B2
Details: with traf3_human TRAF3, Q13114
For R361C, the “effect of a mutation on the interaction” value was “with no effect”.

Variants of: B2
Details: with traf3_human TRAF3, Q13114
Remark: another data set of the same source
R361H was tested, and the “effect of a mutation on the interaction” value was “with no effect”.

Variants of: B2
Details: with traf3_human TRAF3, Q13114
Remark: another data set of the same source
With D351H the “effect of a mutation on the interaction” value was “with no effect”.

Variants of: B2
Details: with traf3_human TRAF3, Q13114
Remark: another data set of the same source
With G386D the “effect of a mutation on the interaction” value was “with no effect”.

Variants of: B3
Details: with tbx3_human TBX3, O15119
For D351H, the “effect of a mutation on the interaction” value was “with no effect”.

Variants of: B3
Details: with tbx3_human TBX3, O15119
Remark: another data set of the same source
With R361C the “effect of a mutation on the interaction” value was “with no effect”.

Variants of: B3
Details: with tbx3_human TBX3, O15119
Remark: another data set of the same source
In the case of R361H, the “effect of a mutation on the interaction” value is reported as “with no effect”.

Variants of: B3
Details: with tbx3_human TBX3, O15119
Remark: another data set of the same source
For G386D, the “effect of a mutation on the interaction” value was “with no effect”.

Variants of: B4
Details: with stk4_human STK4, Q13043
In the case of G386D, the “effect of a mutation on the interaction” value is reported as “with no effect”.

Variants of: B4
Details: with stk4_human STK4, Q13043
Remark: another data set of the same source
With R361C the “effect of a mutation on the interaction” value was “with no effect”.

Variants of: B4
Details: with stk4_human STK4, Q13043
Remark: another data set of the same source
In the case of R361H, the “effect of a mutation on the interaction” value is reported as “with no effect”.

Variants of: B4
Details: with stk4_human STK4, Q13043
Remark: another data set of the same source
With D351H the “effect of a mutation on the interaction” value was “with no effect”.

Variants of: B5
Details: with sem4a_human SEMA4A
In the case of R361C, the “effect of a mutation on the interaction” value is reported as “with no effect”.

Variants of: B5
Details: with sem4a_human SEMA4A
Remark: another data set of the same source
In the case of R361H, the “effect of a mutation on the interaction” value is reported as “with no effect”.

Variants of: B5
Details: with sem4a_human SEMA4A
Remark: another data set of the same source
In the case of G386D, the “effect of a mutation on the interaction” value is reported as “with no effect”.

Variants of: B5
Details: with sem4a_human SEMA4A
Remark: another data set of the same source
D351H was tested, and the “effect of a mutation on the interaction” value was “with no effect”.

Variants of: B6
Details: with elf5_human ELF5, Q9UKW6
For R361C, the “effect of a mutation on the interaction” value was “with no effect”.

Variants of: B6
Details: with elf5_human ELF5, Q9UKW6
Remark: another data set of the same source
With R361H the “effect of a mutation on the interaction” value was “with no effect”.

Variants of: B6
Details: with elf5_human ELF5, Q9UKW6
Remark: another data set of the same source
In the case of G386D, the “effect of a mutation on the interaction” value is reported as “with no effect”.

Variants of: B7
Details: with mbd1_human MBD1, Q9UIS9
With R361C the “effect of a mutation on the interaction” value was “with no effect”.

Variants of: B7
Details: with mbd1_human MBD1, Q9UIS9
Remark: another data set of the same source
With R361H the “effect of a mutation on the interaction” value was “with no effect”.

Variants of: B7
Details: with mbd1_human MBD1, Q9UIS9
Remark: another data set of the same source
G386D was tested, and the “effect of a mutation on the interaction” value was “with no effect”.

Reference: IntAct's records for PubMed 35512704
